The target of test [1] is F-actin (rabbit muscle actin filaments) (rabbit) (UniProt P68135). Description: SPR.
For test [2], the target named is EhP3 (Entamoeba histolytica 14-3-3 protein isoform 3) (Entamoeba histolytica). Description: SPR; Autolab ESPIRIT; EhP3 immobilised; EhActo flowed at increasing concentrations; 10 mM HEPES, 0.2 mM calcium acetate, 0.005% Triton-X100; 25°C. Background: In SPR one partner is held on a chip, and binding of the other changes the refractive index at the surface.
Chain of EhP3 (Entamoeba histolytica 14-3-3 protein isoform 3) (Entamoeba histolytica) (C4M0F4 whole entry, canonical isoform): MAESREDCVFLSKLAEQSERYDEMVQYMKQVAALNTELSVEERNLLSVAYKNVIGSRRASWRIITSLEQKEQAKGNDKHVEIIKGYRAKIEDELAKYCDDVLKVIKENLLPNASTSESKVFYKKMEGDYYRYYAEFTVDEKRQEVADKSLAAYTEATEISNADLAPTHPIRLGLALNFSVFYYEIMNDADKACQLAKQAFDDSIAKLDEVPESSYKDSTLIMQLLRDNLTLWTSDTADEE

For the substance “Entamoeba histolytica actophorin (EhActo) (from UniProt C4LVG4 1-138) (natural protein)”, the figures for the Kd in test [1] and in test [2] were 0.249 µM and 1 µM, respectively.

In general, Kd refers to the equilibrium constant for the complex coming apart.

The values are drawn from publication PMC8914023.
